Data published in US20260139035A1.

Biological target: spike proteins of SARS-CoV-2 variants (614G, Alpha, Beta, Gamma, Delta, Kappa, Lambda, Mu, BA.1, BA.)
Assay: cell-based or functional assay

B1: 3-1 antibody (antibody, V domains shown)
VH: EVQLVQSGAEVKKPGESLKISCKGSGYIFTNYWIGWVRQMPGKGLEWMGIINPRDSDTRYSPSFQGQVTISTDKSINTAYLQWSSLKASDTAMYYCARQQGGFGDLGAYNWFDPWGQGTLVTVSS
VL: not shown
Work on B1 yielded an IC50, pseudovirus neutralization of less than 0.25 mg/L.
